Test results taken from patent US20190194358A1 (ARIZONA BOARD OF REGENTS A BODY CORPORATE OF THE STATE OF …, published 2019).
Where two headings read alike, the source gives them in different places. Ends that are not written are not given here.

Key:
transferrin [1] = biological target: T1, transferrin (human, UniProt P02787 20-698); experiment: SPR (Biacore A-100), biotinylated transferrin captured on Neutravidin, unpurified peptide injected for 60 s
T1 construct: also called TRF; pooled human transferrin (Sigma)
T1 sequence (P02787 20-698 limits assumed): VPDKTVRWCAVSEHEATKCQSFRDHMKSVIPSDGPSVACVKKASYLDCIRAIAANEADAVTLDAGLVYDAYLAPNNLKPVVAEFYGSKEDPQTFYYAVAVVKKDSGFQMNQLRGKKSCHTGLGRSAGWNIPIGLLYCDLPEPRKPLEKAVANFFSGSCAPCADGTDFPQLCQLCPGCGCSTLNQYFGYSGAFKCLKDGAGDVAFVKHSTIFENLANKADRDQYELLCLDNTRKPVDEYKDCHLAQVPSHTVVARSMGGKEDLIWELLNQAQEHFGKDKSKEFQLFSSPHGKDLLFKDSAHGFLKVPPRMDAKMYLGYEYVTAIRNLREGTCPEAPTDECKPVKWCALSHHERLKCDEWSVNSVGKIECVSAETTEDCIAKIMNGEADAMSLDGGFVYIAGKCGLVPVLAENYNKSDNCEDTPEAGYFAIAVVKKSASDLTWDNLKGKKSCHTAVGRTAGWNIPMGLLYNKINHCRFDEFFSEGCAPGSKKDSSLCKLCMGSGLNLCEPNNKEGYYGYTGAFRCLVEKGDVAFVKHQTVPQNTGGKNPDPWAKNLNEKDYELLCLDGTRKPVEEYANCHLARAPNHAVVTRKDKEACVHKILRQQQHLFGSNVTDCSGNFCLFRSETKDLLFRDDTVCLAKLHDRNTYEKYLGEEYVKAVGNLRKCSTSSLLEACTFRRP

transferrin [2] = biological target: T1, transferrin; experiment: SPR (Biacore T100), transferrin immobilised
transferrin [3] = biological target: T1, transferrin; experiment: SPR (Biacore T100), transferrin immobilised (9758 RU), steady state affinity fit
transferrin [4] = biological target: T1, transferrin; experiment: reference TRF26 lead peptide
transferrin [5] = biological target: T1, transferrin; experiment: affinity characterisation of Example 29 (SPR; format for the purified peptides not stated)
transferrin [6] = biological target: T1, transferrin; experiment: reference TRF26 lead peptide; remark: listed apart in the source
transferrin [7] = biological target: T1, transferrin; experiment: affinity characterisation of Example 29 (SPR; format for the purified peptides not stated); remark: listed apart in the source
[8] = biological target: T2, Tumor Necrosis Factor-alpha (UniProt P01375 77-233); experiment: SPR (Biacore T-100), TNF-α amine-coupled to a CM5 chip, synbody concentration series
T2 construct: Immobilised on pipette tips or SPR chips (amine coupling or biotin capture); also called TNF-α; TNF-alpha
T2 sequence (P01375 77-233 limits assumed): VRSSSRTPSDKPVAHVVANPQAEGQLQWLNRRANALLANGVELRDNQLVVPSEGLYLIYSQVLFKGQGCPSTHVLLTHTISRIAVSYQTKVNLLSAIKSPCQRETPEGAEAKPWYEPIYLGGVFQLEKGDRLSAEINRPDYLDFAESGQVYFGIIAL

Gal80 = biological target: T3, Gal80 (UniProt P04387 1-435, limits assumed); experiment: SPR, gal80 immobilised on the chip; Kd from on and off rates
T3 construct: Cy3/Cy5 labelled on arrays, immobilised for SPR and ELISA
T3 sequence (looked up): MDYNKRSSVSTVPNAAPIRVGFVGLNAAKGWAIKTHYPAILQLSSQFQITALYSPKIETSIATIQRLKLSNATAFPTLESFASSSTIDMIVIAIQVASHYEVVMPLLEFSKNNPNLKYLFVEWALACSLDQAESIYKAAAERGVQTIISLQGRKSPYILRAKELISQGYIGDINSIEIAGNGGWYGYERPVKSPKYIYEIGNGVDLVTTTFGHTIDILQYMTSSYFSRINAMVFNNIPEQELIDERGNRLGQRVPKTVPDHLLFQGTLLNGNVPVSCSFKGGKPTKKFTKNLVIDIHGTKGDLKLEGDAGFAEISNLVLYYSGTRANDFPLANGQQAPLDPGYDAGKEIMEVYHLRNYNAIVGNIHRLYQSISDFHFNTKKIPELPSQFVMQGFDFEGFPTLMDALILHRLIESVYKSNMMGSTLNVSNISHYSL

transferrin [9] = biological target: T1, transferrin; experiment: SPR (Biacore A-100), biotinylated transferrin captured on Neutravidin, unpurified peptide injected for 60 s; remark: listed apart in the source
transferrin [10] = biological target: T1, transferrin; experiment: as above; remark: listed apart in the source
transferrin [11] = biological target: T1, transferrin; experiment: as above; remark: listed apart in the source
[12] = biological target: T4, SC1 Transcription factor 19 (human, UniProt Q9Y242); experiment: Invitrogen ProtoArray Human Protein Microarray v4.0; biotinylated synbody, fluorescently labelled streptavidin; fluorescence intensity
T4 construct: GST fusion on the array
T4 sequence (looked up): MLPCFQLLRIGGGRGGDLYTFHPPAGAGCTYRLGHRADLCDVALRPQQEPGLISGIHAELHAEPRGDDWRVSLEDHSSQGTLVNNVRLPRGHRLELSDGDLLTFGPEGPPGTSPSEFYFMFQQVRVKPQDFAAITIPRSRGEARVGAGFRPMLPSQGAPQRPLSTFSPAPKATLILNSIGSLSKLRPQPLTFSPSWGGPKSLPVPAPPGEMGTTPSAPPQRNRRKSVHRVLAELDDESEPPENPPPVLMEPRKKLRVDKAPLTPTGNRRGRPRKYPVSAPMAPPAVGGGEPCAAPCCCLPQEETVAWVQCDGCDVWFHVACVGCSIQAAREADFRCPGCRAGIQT

PSMA3 = biological target: T5, PSMA3 (human, UniProt P25788); experiment: as above
T5 construct: GST fusion on the array
T5 sequence (P25788 whole entry, the tested form may be a part): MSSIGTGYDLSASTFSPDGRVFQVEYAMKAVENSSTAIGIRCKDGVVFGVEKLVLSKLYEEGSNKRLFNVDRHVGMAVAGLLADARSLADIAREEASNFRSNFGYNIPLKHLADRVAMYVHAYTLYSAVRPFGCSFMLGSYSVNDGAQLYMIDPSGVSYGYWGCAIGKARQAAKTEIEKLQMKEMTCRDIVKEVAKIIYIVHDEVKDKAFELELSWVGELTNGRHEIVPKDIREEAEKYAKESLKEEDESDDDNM

GRP58 = biological target: T6, GRP58 (human, UniProt P30101 25-505, limits assumed); experiment: as above
T6 construct: GST fusion adsorbed on a nitrocellulose slide
T6 sequence (looked up): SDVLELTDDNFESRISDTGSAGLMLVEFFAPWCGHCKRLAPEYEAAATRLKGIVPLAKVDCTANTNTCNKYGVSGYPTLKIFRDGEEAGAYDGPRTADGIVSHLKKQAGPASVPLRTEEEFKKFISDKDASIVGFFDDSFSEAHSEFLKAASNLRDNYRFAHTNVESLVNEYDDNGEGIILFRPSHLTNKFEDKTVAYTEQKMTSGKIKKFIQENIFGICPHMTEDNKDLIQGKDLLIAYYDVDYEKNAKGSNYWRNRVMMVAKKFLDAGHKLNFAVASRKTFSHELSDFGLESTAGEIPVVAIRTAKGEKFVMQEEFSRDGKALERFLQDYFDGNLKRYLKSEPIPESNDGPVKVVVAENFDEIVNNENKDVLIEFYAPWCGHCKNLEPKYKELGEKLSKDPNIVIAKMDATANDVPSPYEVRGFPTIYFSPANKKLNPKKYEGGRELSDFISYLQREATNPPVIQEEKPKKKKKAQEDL

[13] = biological target: T2, Tumor Necrosis Factor-alpha; experiment: SPR, kinetic fits of sensorgrams
[14] = biological target: T2, Tumor Necrosis Factor-alpha; experiment: SPR (Biacore A100), TNF-α captured, equilibrium response over a concentration series
[15] = biological target: T2, Tumor Necrosis Factor-alpha; experiment: SPR; reference TNF1 lead peptide
[16] = biological target: T2, Tumor Necrosis Factor-alpha; experiment: SPR (Biacore A100), TNF-α captured, equilibrium response over a concentration series; remark: listed apart in the source
[17] = biological target: T2, Tumor Necrosis Factor-alpha; experiment: SPR (Biacore A100), TNF-α captured, equilibrium response over a concentration series; the cell prints '93', read as 9.3 (decimal point lost)
[18] = biological target: T2, Tumor Necrosis Factor-alpha; experiment: SPR-derived binding energies
[19] = biological target: T2, Tumor Necrosis Factor-alpha; experiment: fluorescence anisotropy; fluorescence anisotropy
[20] = biological target: T2, Tumor Necrosis Factor-alpha; experiment: SPR, kinetic fits of sensorgrams (printed 'kon' in a sentence on the off-rate)
[21] = biological target: T2, Tumor Necrosis Factor-alpha; experiment: SPR, kinetic fits of several sensorgrams; Kd from kinetic fits, not equilibrium responses
[22] = biological target: T2, Tumor Necrosis Factor-alpha; experiment: SPR equilibrium binding (Biacore A100), TNF-α captured on the chip
transferrin [23] = biological target: T1, transferrin; experiment: SPR (Biacore A-100), biotinylated transferrin captured on Neutravidin, unpurified peptide injected for 60 s; remark: listed apart in the source
transferrin [24] = biological target: T1, transferrin; experiment: as above; remark: listed apart in the source
transferrin [25] = biological target: T1, transferrin; experiment: as above; remark: listed apart in the source
transferrin [26] = biological target: T1, transferrin; experiment: as above; remark: listed apart in the source
transferrin [27] = biological target: T1, transferrin; experiment: as above; remark: listed apart in the source

DNSRRSAKQRIFMHVDLGSC (Unpurified library peptide) [peptide of FIG. 60G]: binds (transferrin [1]).

B1: TBPM023 (peptide)
peptide: AHKVVPQRQMRHAYSRYGSC
notes: Clone from mRNA display on a doped TRF26 library; also called TBPMO23
In the case of B1, the “fold improvement in affinity relative to TRF26” value (transferrin [2]) is reported as over 10 fold and the Kd (transferrin [3]) is reported as 11.6 µM.

B2: TRF26 P6Y+H12F double mutant (peptide)
peptide: AHKVVYQRQIRFAYNRYGSC
notes: also called P6Y + 1112F (so in the source)
B2 was tested, and the “Kd Fold-Change Relative to Lead” value (transferrin [4]) was 190 fold and the Kd (transferrin [5]) was 0.5 µM.

AHKVVYQRQIRHAYNRYGSC [TRF26 P6Y point-mutant] was tested, and the “Kd Fold-Change Relative to Lead” value (transferrin [6]) was 10 fold, the “Binding ΔG” value (transferrin [7]) was -6.93 kcal/mol and the Kd (transferrin [7]) was 8.6 µM.

With AHKVVPQRQIRFAYNRYGSC [TRF26 H12F point-mutant] the “Kd Fold-Change Relative to Lead” value (transferrin [6]) was 8.8 fold, the “Binding ΔG” value (transferrin [7]) was -6.85 kcal/mol and the Kd (transferrin [7]) was 9.7 µM.

B3: TNF1-TNF4-KC-stBu (designed binder)
peptide 1: MKSIIPMSVAQHQGPIKGSG
peptide 2: FMNYPIKVPILVVPIGRGSG
modifications: not fully specified (C-terminus, bridges); also: chain 1 C-terminus on Lys α-amine, chain 2 C-terminus on same Lys ε-amine (branched dimer)
notes: Lysine linker followed by Cys(StBu); also called TNFa1-TNFa 4- KC(stBu)
B3: no binding [8].

B4: BP2 on dsDNA (peptide)
affinity element BP2: EGEWTEGKLSLRGSC
modifications: C-terminal Cys joined through SMCC to the DNA linker
notes: also called BP2 alone conjugated to the double-stranded DNA linker
For B4, the Kd (Gal80) was 0.982 µM.

WMDDIDAPQDEWWVFHHGSC (Unpurified library peptide) [peptide of FIG. 60C]: binds (transferrin [9]).

DRDTPWETTNKTEEGIEGSC (Unpurified library peptide) [peptide of FIG. 60J]: binds (transferrin [10]).

TEDNDYMVVSMVVTMEPGSC (Unpurified library peptide) [peptide of FIG. 60L]: binds (transferrin [11]).

B5: SYN21-22 (designed binder)
peptide 1: QYHHFMNLKRQGRAQAYGSG
peptide 2: HAYKGPGDMRRFNHSGMGSG
modifications: also: both chains joined by C-terminus to the amines of a branching Lys, Lys-Cys linker with biotinylated Cys thiol
notes: Lysine linker followed by cysteine; the thiol of the cysteine biotinylated for the protein array; also called anti-TRF synbody
B5: binds [12]; binds (PSMA3); binds (GRP58).

In the case of FERDPLMMPWSFLQSRQGSC [TNF1 lead peptide], the koff [13] is reported as 1.6 s⁻¹, the “Binding ΔG” value [14] is reported as -5.21 kcal/mol and the Kd [14] is reported as 160 µM.

In the case of FERYPLMMPWKFLQSRQGSC [TNF1 D4Y+S11K double mutant], the “Kd Fold-Change Relative to Lead” value [15] is reported as 17 fold, the “Observed Binding ΔG” value [16] is reported as -6.67 kcal/mol and the Kd [17] is reported as 9.3 µM.

FERSYLKMPWKFLQSRQGSC [TNF1-opt (D4S+P5Y+M7K+S11K quadruple mutant)] was tested, and the “difference in observed binding energy relative to D4S+P5Y+S11K” value [18] was -0.94 kcal/mol, the “difference in observed binding energy relative to P5Y+M7K” value [18] was -1.73 kcal/mol and the “difference in observed binding energy relative to P5Y+S11K” value [18] was -1.66 kcal/mol. The “Kd Fold-Change Relative to Lead” value [15] was 100 fold, the Kd [19] was 1.1 µM and the koff [20] was 0.2 s⁻¹. The Kd [16] was 1.6 µM, the “Observed Binding ΔG” value [16] was -7.97 kcal/mol and the Kd [21] was 0.7 µM.

B6: TNF1 D4S+P5Y+S11K triple mutant (peptide)
peptide: FERSYLMMPWKFLQSRQGSC
notes: also called D4S + P5Y + S1IK (so in the source)
In the case of B6, the “difference in observed binding energy relative to P5Y+S11K” value [18] is reported as -0.72 kcal/mol, the “Kd Fold-Change Relative to Lead” value [15] is reported as 23 fold and the “Fold Change (Ka mutant / Ka TNF1)” value [22] is reported as 23 fold. The Kd [16] was 7 µM and the “Observed Binding ΔG” value [16] was -7.03 kcal/mol.

DFLWSKSGILSHASWNHGSC (Unpurified library peptide) [peptide of FIG. 60D]: binds (transferrin [23]).

KMRTITYYHLQAILKQRGSC (Unpurified library peptide) [peptide of FIG. 60F]: binds (transferrin [24]).

B7: peptide of FIG. 60B (peptide)
peptide: NIRMLLRFTVFPAQKLIGSC
notes: Unpurified library peptide (~50 to 70% pure)
B7: binds (transferrin [25]).

QENDQQSFGLGGMMGQAGSC (Unpurified library peptide) [peptide of FIG. 60K]: binds (transferrin [26]).

AMMRMDMAGLNKIVFHQGSC (Unpurified library peptide) [peptide of FIG. 60I]: binds (transferrin [27]).
